According to publication PMC8018905:
Like-named read-outs stand apart in the source and are kept apart here.

Tests used:
[1] = molecular target: recombinant angiotensin-converting enzyme 2 (ACE2) (UniProt Q9BYF1); test: electrochemical impedance spectroscopy
[2] = molecular target: recombinant angiotensin-converting enzyme 2 (ACE2) (UniProt Q9BYF1); test: electrochemical impedance spectroscopy; remark: listed apart in the source

Chain of recombinant angiotensin-converting enzyme 2 (ACE2) (Q9BYF1 18-740): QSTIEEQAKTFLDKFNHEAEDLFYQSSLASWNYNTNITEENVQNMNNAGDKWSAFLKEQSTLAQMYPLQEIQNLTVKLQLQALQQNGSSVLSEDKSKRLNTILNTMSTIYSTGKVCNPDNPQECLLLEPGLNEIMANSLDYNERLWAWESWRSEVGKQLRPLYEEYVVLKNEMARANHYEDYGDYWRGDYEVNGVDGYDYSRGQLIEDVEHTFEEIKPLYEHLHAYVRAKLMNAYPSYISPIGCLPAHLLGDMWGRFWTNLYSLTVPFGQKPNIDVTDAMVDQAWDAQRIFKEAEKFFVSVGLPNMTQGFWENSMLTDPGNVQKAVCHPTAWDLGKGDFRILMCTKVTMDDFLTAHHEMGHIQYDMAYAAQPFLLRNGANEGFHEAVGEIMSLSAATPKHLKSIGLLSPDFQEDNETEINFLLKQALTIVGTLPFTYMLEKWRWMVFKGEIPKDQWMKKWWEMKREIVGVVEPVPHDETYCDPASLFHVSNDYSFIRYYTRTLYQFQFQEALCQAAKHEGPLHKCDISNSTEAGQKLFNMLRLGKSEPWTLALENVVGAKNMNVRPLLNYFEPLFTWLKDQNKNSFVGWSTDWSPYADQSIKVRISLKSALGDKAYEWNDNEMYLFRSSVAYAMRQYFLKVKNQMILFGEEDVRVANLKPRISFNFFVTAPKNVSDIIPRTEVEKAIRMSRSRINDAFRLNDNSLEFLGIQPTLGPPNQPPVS

recombinant SARS-CoV-2 S-protein receptor-binding domain (from UniProt P0DTC2) (domain or fragment; other documents disagree on this pair)
EC50 [1]: 1.74 µM | EC50 [2]: 5.1 µM
